# Measurements reported in paper PMC5427921 (2017).
# B1: PRL2 phosphatase (as used in ITC) (enzyme)
# chain: MNRPAPVEISYENMRFLITHNPTNATLNKFTEELKKYGVTTLVRVCDATYDKAPVEKEGIHVLDWPFDDGAPPPNQIVDDWLNLLKTKFREEPGCCVAVHCVAGLGRAPVLVALALIECGMKYEDAVQFIRQKRRGAFNSKQLLYLEKYRPKMRLRFRDTNGHCCVQ
# B2: CNNM3 CBS-pair domain as a GST fusion (domain or fragment)
# chain: LRCRTVEDVLTPLEDCFMLDASTVLDFGVLASIMQSGHTRIPVYEEERSNIVDMLYLKDLAFVDPEDCTPLSTITRFYNHPLHFVFNDTKLDAVLEEFKRGKSHLAIVQKVNNEGEGDPFYEVLGLVTLEDVIEEIIRSEILDE
# What was measured:
# Assay in all cases: ITC
# [1] = target: CBS-pair domain of human CNNM3 (GST tag removed) (human, UniProt Q8NE01 309-452)
# PRL3 R138E = PRL3 R138E (human, UniProt O75365 1-169, R138E)
# PRL3 C49A = PRL3 C49A (human, UniProt O75365 1-169, C49A)
# [2] = target: PRL3 with Arg138 mutated to alanine (human, UniProt O75365 1-169, Arg138 to alanine)
# PRL3 C49S = PRL3 C49S (human, UniProt O75365 1-169, C49S)
# PRL3 C104S = PRL3 C104S (human, UniProt O75365 1-169, C104S)
# PRL3 L108A = PRL3 L108A (human, UniProt O75365 1-169, L108A)
# PRL3 C104A = PRL3 C104A (human, UniProt O75365 1-169, C104A)
# [3] = target: PRL3 with the catalytic cysteine (Cys104) mutated to glutamic acid (human, UniProt O75365 1-169, Cys104 to glutamic acid)
# PRL3 D72A = PRL3 D72A (human, UniProt O75365 1-169, D72A)
Binder,Kd [1] [nM],Kd (PRL3 R138E) [nM],Kd (PRL3 C49A) [nM],Kd [2] [nM],Kd (PRL3 C49S) [nM],Kd (PRL3 C104S) [nM],Kd (PRL3 L108A) [nM],Kd (PRL3 C104A) [nM],Kd [3] [nM],Kd (PRL3 D72A) [nM]
B1,11,–,–,–,–,–,–,–,–,–
B2,–,530,72,320,105,1400,1700,180,2800,215
